Columns and labels:
[1] = test system: ABF2 (Arabidopsis thaliana); test: one_hybrid
[2] = target: T1, ABF1 (Arabidopsis thaliana) (UniProt Q9M7Q5); test: one_hybrid
T1 sequence: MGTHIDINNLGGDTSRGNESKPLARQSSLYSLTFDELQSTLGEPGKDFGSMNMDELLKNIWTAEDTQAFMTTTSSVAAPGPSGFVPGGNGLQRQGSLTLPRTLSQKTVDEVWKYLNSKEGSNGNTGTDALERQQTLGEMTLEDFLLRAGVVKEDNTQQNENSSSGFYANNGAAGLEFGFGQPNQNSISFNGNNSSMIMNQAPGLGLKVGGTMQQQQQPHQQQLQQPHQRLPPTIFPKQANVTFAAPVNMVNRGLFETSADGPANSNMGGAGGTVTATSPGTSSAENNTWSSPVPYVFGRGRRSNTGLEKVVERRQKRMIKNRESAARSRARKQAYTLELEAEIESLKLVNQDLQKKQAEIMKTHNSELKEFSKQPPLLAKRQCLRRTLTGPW

## Em1a trimer reporter
[1]
  activity (fold over background): 2
[2]
  activity (fold over control vector): 6
